B2: Leucine-rich alpha-2-glycoprotein 1 (LRG1), recombinant tag-free human LRG1 (ligand, UniProt P02750 36-347, looked up)
chain: VTLSPKDCQVFRSDHGSSISCQPPAEIPGYLPADTVHLAVEFFNLTHLPANLLQGASKLQELHLSSNGLESLSPEFLRPVPQLRVLDLTRNALTGLPPGLFQASATLDTLVLKENQLEVLEVSWLHGLKALGHLDLSGNRLRKLPPGLLANFTLLRTLDLGENQLETLPPDLLRGPLQLERLHLEGNKLQVLGKDLLLPQPDLRYLFLNGNKLARVAAGAFQGLRQLDMLDLSNNSLASVPEGLWASLGQPNWDMRDGFDISGNPWICDQNLSDLYRWLQAQKDKMFSQNDTRCAGPEAVKGQTLLAVAKSQ
notes: human LRG1, residues V36-Q347; In the TriCEPS capture LRG1 was coupled to the TriCEPS reagent; Residues of the thrombin site may remain after cleavage; also called recombinant LRG1; soluble LRG1; not shown: Fc (human IgG), C-terminal, cleaved

In assay [1] the target is B2. In words: solid-phase binding assay; LRG1 and recombinant extracellular domains of LPHN2 (and Lec/Olf of LPHN1, LPHN3); who was immobilised and conditions not told in the text shown. Particulars: both partners purified.
In assay [2] the target is T1, LPHN2 Lec-Olf domains (F26-P394) (UniProt O95490 26-394).
T1 construct: LPHN2 (ADGRL2) lectin and olfactomedin-like domains, residues F26-P394; Both Fc-tagged and tag-free forms were made; source: Expi293F, purified (protein A resin; tag-free form by on-resin thrombin digestion; Superdex 200)
T1 sequence (looked up): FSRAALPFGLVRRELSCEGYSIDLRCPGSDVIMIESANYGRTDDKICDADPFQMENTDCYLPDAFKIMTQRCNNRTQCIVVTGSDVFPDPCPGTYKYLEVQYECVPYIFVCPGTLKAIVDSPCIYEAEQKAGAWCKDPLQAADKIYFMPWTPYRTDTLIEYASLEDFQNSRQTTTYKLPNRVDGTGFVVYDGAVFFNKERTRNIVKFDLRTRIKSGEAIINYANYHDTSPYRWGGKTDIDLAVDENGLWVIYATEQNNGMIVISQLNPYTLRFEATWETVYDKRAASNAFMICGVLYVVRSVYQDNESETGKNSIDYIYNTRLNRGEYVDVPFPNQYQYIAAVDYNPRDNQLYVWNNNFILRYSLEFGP
Described as above. Particulars: both partners purified.

B1: LPHN2 Olf domain (V135-P394) (domain or fragment, UniProt O95490 135-394, looked up)
chain: VCPGTLKAIVDSPCIYEAEQKAGAWCKDPLQAADKIYFMPWTPYRTDTLIEYASLEDFQNSRQTTTYKLPNRVDGTGFVVYDGAVFFNKERTRNIVKFDLRTRIKSGEAIINYANYHDTSPYRWGGKTDIDLAVDENGLWVIYATEQNNGMIVISQLNPYTLRFEATWETVYDKRAASNAFMICGVLYVVRSVYQDNESETGKNSIDYIYNTRLNRGEYVDVPFPNQYQYIAAVDYNPRDNQLYVWNNNFILRYSLEFGP
notes: LPHN2 (ADGRL2) olfactomedin-like domain, residues V135-P394; Both Fc-tagged and tag-free forms were made; also called olfactomedin-like domain; source: Expi293F, purified (protein A resin; tag-free form by on-resin thrombin digestion; Superdex 200)
The Kd is the equilibrium constant for the complex coming apart. With B1, the Kd in assay [1] was found to be 920 nM.

Turning to B2, the Kd in assay [2] is 890 nM.
